This note sets out measurements from PMC9508356.

The test deals with biotinylated SARS-CoV-2 spike protein subdomain 1 (S1) (SARS-CoV-2) (UniProt P0DTC2). The test is described as follows: BLI. In general terms: In BLI a coated tip is dipped into the sample, and binding shifts an interference pattern.

As a reminder, the Kd is the constant that tells how readily two partners part at equilibrium. The low end stands for tighter binding, the high end for weaker binding. In general, koff refers to a measure of how fast the partners let go of each other. Read a low koff as slow dissociation. As a reminder, the kon is the second-order rate constant of association. “recombinant human albumin ACE2 genetic fusion with wild type albumin sequence (WT-ACE2) (from UniProt Q9BYF1-1 18-740)” gave a Kd of 32.8 nM, a koff of 0.00028 s⁻¹ and a kon of 7860 M⁻¹ s⁻¹.

In the case of “recombinant human albumin ACE2 genetic fusion with FcRn null-binding albumin sequence (NB-ACE2) (from UniProt Q9BYF1-1 18-740)”, the Kd came to 31.7 nM, the koff stood at 0.000209 s⁻¹ and the association rate constant (kon) is 9640 M⁻¹ s⁻¹.
